According to US20220332804A1 (CSL INNOVATION, published 2022):

Tests used:
Experiment in all cases: SPR; KD relative to WT C2;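 note: biacore SPR at 37 °C, anti-C2 mAbs captured on an anti-human IgG chip, alanine or serine C2 surface mutants tested, KD from 1:1 fit compared with wild-type C2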
human C2 E433A = biological target: T1, human C2 E433A (human, UniProt P06681 21-752)
T1 sequence: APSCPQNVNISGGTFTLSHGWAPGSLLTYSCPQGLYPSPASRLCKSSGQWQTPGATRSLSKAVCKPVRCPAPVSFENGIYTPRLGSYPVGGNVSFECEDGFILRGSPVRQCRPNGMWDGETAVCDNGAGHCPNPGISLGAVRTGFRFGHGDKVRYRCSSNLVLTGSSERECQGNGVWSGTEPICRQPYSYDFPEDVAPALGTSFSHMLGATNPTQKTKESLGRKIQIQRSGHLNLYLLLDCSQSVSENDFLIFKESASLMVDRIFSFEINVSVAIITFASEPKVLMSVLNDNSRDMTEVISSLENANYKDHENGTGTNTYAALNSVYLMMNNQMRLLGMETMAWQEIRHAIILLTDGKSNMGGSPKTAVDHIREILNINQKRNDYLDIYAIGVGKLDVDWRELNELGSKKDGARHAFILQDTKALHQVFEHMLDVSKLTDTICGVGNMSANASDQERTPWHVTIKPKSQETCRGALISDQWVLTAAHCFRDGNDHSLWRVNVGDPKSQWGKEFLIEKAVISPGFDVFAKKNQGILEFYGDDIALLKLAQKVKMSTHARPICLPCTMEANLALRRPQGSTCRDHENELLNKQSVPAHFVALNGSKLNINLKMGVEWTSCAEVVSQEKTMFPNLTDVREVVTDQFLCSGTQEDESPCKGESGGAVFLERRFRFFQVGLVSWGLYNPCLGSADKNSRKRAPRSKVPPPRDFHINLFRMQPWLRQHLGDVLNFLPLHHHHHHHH

human C2 E450A = biological target: T2, human C2 E450A (human, UniProt P06681 21-752)
T2 sequence: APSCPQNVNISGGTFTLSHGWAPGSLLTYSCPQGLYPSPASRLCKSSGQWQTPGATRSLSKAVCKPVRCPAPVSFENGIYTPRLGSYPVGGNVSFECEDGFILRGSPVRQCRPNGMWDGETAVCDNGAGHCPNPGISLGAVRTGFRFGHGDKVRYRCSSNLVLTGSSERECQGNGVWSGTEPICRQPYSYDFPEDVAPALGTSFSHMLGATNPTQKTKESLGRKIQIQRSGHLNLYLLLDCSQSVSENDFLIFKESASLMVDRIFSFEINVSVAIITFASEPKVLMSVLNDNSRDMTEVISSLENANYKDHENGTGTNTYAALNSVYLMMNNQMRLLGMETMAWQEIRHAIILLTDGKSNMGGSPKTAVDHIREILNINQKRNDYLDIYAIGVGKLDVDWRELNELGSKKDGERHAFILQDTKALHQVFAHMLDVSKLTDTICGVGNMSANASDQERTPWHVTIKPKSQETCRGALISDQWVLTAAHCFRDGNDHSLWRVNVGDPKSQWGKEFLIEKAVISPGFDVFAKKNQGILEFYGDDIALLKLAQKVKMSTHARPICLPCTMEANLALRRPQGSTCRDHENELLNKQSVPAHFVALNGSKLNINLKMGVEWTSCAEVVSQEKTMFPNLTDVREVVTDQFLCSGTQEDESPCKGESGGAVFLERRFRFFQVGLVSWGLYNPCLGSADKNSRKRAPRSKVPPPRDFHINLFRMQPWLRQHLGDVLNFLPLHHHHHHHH

human C2 K415A = biological target: T3, human C2 K415A (human, UniProt P06681 21-752)
T3 sequence: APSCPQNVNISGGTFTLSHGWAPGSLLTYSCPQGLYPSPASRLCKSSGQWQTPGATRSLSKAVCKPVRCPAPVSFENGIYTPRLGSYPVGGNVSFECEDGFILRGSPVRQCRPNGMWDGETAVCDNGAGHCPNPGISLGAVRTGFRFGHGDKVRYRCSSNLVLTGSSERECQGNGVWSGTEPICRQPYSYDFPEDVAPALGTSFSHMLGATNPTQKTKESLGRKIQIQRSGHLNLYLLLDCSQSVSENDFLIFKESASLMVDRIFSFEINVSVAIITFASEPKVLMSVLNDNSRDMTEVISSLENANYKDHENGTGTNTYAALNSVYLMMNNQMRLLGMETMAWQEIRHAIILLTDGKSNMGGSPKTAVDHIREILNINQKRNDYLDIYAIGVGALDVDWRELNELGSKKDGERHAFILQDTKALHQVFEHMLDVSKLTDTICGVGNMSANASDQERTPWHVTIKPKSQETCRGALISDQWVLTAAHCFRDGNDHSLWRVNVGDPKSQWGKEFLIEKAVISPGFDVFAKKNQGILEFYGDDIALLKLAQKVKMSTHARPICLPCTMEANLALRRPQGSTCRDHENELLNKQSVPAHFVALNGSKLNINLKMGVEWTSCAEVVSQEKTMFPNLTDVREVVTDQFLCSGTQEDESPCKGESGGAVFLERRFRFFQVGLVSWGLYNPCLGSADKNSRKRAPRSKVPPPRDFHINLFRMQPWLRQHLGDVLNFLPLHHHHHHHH

human C2 D419A = biological target: T4, human C2 D419A (human, UniProt P06681 21-752)
T4 sequence: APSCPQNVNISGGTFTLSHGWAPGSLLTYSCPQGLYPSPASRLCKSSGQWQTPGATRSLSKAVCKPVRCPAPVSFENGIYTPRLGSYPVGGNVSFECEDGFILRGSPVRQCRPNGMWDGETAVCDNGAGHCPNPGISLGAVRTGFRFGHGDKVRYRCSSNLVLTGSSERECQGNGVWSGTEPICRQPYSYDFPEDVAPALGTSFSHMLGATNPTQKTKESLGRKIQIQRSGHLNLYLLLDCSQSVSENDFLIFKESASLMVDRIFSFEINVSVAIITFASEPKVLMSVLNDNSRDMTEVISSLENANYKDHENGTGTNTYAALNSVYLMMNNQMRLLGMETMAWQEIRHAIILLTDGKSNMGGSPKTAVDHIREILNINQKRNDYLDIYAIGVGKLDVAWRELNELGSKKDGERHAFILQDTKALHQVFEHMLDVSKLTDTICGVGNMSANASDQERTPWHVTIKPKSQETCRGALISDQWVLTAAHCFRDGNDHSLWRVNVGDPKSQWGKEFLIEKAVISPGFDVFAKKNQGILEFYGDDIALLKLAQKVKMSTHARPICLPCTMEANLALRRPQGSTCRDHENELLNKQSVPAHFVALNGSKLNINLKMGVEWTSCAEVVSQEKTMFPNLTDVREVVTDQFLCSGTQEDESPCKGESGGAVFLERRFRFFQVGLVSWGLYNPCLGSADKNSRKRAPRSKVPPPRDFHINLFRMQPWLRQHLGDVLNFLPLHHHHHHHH

B1: RF16-214 (antibody, V domains shown)
VH: EVQLLESGGGLVQPGGSLRLSCAASGFTFSWYQMMWVRQAPGKGLEWVSRIYPSGGGTAYADSVKGRFTISRDNSKNTLYLQMNSLRAEDTAVYYCARDAGYGDNWGQGTLVTVSS
VL: QSALTQPPSVSVSPGQTASITCSGDKLGEKYASWYQQKAGQSPVMVIYQDRKRPSGIPERFSGSNSGNTATLTISGTQAMDEADYYCQAWDTRAVVFGGGTKLTVLG
B1 showed a Fold diff (human C2 E433A) of 1 fold, a Fold diff (human C2 E450A) of 20 fold and a Fold diff (human C2 K415A) of 1 fold. The Fold diff (human C2 D419A) was 2 fold.
